Assay [1] concerns the target hemagglutinin (HA) of influenza A/Brisbane/10/07 (H3N2) (influenza A virus A/Brisbane/10/07 (H3N2)). The assay can be described thus: cell-based or functional assay.
Assay [2] has as its target hemagglutinin (HA) of influenza A/New York/107/03 (PR8) (influenza A virus A/New York/107/03 (PR8)). The assay can be described thus: cell-based or functional assay.
Assay [3] concerns the target hemagglutinin (HA) of influenza A/chicken/Germany/n/49 (H10N7) (influenza A virus A/chicken/Germany/n/49 (H10N7)). Nature of the assay: cell-based or functional assay.
In assay [4] the target is hemagglutinin (HA) of influenza A/waterfowl/Hong Kong/MPA892/06 (H4) (influenza A virus A/waterfowl/Hong Kong/MPA892/06 (H4)). The assay can be described thus: cell-based or functional assay.
In assay [5] the target is HA of H10N7 A/Chick/Germany/N/49 (influenza A virus). Nature of the assay: cell-based or functional assay.
Assay [6] deals with HA of H1N1 A/New Caledonia/20/1999 (influenza A virus). The assay can be described thus: cell-based or functional assay.
In assay [7] the target is HA of H1N1 A/Puerto Rico/8/34-MA (influenza A virus). The assay can be described thus: cell-based or functional assay.
The target of assay [8] is HA of H3N2 A/Brisbane/10/2007 (influenza A virus). Nature of the assay: cell-based or functional assay.
Assay [9] concerns the target HA of H3N2 A/HK/1/68 (influenza A virus) (UniProt Q91MA7). The assay can be described thus: cell-based or functional assay.
For assay [10], the target named is HA of H4 A/WF/HK/MPA892/06 (influenza A virus). Nature of the assay: cell-based or functional assay.
For assay [11], the target named is HA of H5N1 A/PR8 H5N1 HK97 (influenza A virus). The assay can be described thus: cell-based or functional assay.
The target in assay [12] is HA of H5N1 A/Vietnam/1194/04 (influenza A virus). The assay can be described thus: cell-based or functional assay.
Assay [13] has as its target HA of H7N3 A/NIBRG/60 (A/mallard/NL/12/00) (influenza A virus). The assay can be described thus: cell-based or functional assay.
Assay [14] deals with hemagglutinin (HA) of influenza virus H3N2 A/Brisbane/10/07 (influenza A virus). Nature of the assay: cell-based or functional assay.
In assay [15] the target is hemagglutinin (HA) of influenza virus H5N1 A/Vietnam/1194/04 (influenza A virus). The assay can be described thus: cell-based or functional assay.
The target in assay [16] is hemagglutinin (HA) of influenza virus H7N3 A/NIBRG/60 (A/mallard/Netherlands/12/00) (influenza A virus). The assay can be described thus: cell-based or functional assay.
In assay [17] the target is hemagglutinin (HA) of influenza virus H7N9 A/Anhui/1/13 (influenza A virus). Nature of the assay: cell-based or functional assay.
Assay [18] concerns the target HA of B/Brisbane/60/2008 (Victoria) (influenza B virus). Nature of the assay: cell-based or functional assay.
Assay [19] concerns the target HA of B/Florida/04/2006 (Yamagata) (influenza B virus). The assay can be described thus: cell-based or functional assay.
For assay [20], the target named is HA of B/Harbin/7/94 (Yamagata) (influenza B virus). The assay can be described thus: cell-based or functional assay.
Assay [21] deals with HA of B/Malaysia/2506/04 (Victoria) (influenza B virus). The assay can be described thus: cell-based or functional assay.
Assay [22] addresses HA of B/Florida/04/2006 (Yamagata) (influenza B virus). Nature of the assay: AlphaLISA competition vs CR8033.

B1: SD3099 (VHH)
VHH: EVQLVESGGGLVQPGGSLRLSCAASGRTLSIYSMGWFRQAPGKEREFVATIGWNSGRTFYPDSVKGRFTISRDNSKNTLYLQMNSLRAEDTAVYYCAAAKGPLRLSSQADYWGQGTLVTVSS
As for B1, the VNA IC50 came out at 3 nM in assay [1], 16 nM in assay [2], 5 nM in assay [3] and 2 nM in assay [4].

B2: SD3097 (VHH)
VHH: EVQLLESGGGLVQPGGSLRLSCAASGRTYAMGWFRQAPGKEREFVAAINALGTRTYYADSVKGRFTISRDNSKNTLYLQMNSLRAEDTAVYYCTAQGQWRAAPVAVAAEYEFWGQGTLVTVSS
For the molecule B2, the VNA IC50 was 17 nM in assay [1], 8 nM in assay [2], 6 nM in assay [3] and 6 nM in assay [4].

B3: SD1073 (VHH)
VHH: EVQLVESGGGLVQAGGSLRLSCAASGSAFSIAAMGWYRQAPGKQRELVATITTGGSTNYADSVKGRFTISRDNSKNTAYLQMNSLKPEDTAVYYCTAKSVVAETFGDLYNYWGQGTQVTVSS
On to B3, for which the VNA titer in [5] is 317 nM; in assay [6], 98.9 nM; in [7] it was 89.6 nM; in assay [8], over 1000 nM; in assay [9], over 1000 nM; in assay [10], over 1000 nM. Also, the VNA titer in [11] came to 179 nM; in assay [12], 224 nM; in assay [13], 135 nM.

B4: SD1069 (VHH)
VHH: EVQLVESGGGLVQAGDSLRLSCAASGPTFGMSAMGWFRQAPGKEREFVAAISGLGNPNYSDDVKGRFTISRENGRNTVYLQMNSLKPEDTAVYYCAQRKVYHVQGGDRPQAYDYWGQGTQVTVSS
For the molecule B4, the VNA titer in assay [5] was over 1000 nM; in assay [6] it was 20.8 nM; in assay [7], 12.8 nM; in [8], over 1000 nM; in [9], over 1000 nM; in assay [10], over 1000 nM. In addition, the VNA titer in assay [11] was 242 nM; in [12] it was 74 nM; in assay [13], over 1000 nM.

B5: MD2313 (bispecific antibody)
chain: EVQLVESGGGLVQAGDSLRISCAASGRTLSIYSMGWFRQAPGKEREFVATIGWNSGRTFYPDSLKGRFTISRDNARNTLYLQMNNLRPEDTAVYYCAAAKGPLRLSSQADYWGQGTQVTVSSGGGGSGGGGSEVQLVESGGGLVQAGDSLRISCAASGRTLSIYSMGWFRQAPGKEREFVATIGWNSGRTFYPDSLKGRFTISRDNARNTLYLQMNNLRPEDTAVYYCAAAKGPLRLSSQADYWGQGTQVTVSSGGGGSGGGGSEVQLVESGGGLVQPGGSLRLSCAATGFTLENKAIGWFRQTPGSEREGVLCISKSGSWTYYTDSMRGRFTISRDNAENTVYLQMDSLKPEDTAVYYCATTTAGGGLCWDGTTFSRLASSWGQGTQVTVSS
Consider B5, for which the average neutralization titer in [14] is 7.7 nM; in assay [15] it was over 1000 nM; in assay [16], 6.5 nM; in assay [17], 21.7 nM.

B6: SD1085 (VHH)
VHH: EVQLVESGGGLVQAGDSLRLSCVISGLSLDTYAVGWFRQAPGKEREGITCISSGHGMTYYADSVKGRFTVSTDNAKNTVYLQMNGLQPEDTARYYCATESRYYCSDNWPAPQRYIYWGQGTQVTVSS
Consider B6, for which the VNA titer was found to be 40.7 nM in assay [18], 187 nM in [19], 631 nM in assay [20] and 66.3 nM in [21]. In assay [22], this molecule had a negative-log IC50 (pIC50) of under 7.

Values taken from patent publication US20190359693A1.
